From US12371456B2, “Proteins for the treatment of epithelial barrier function disorders” (Genevive, Inc., priority 2017, dated 2025)

Tested on: HCT8 enterocyte and HT29-MTX goblet cell lines
Experiment: Oris Cell Migration assay (epithelial cell wound healing)
Format: cell-based, human
Settings: 48 hours; SG-14 1 μg/ml, EGF 30 ng/ml, staurosporine 100 nM; FIG. 5
Excerpt: The 96 well Oris Cell Migration assay containing plugs preventing cell attachment in the center of each well was used according to the manufacturer's instructions (Platypus Technologies, Madison, WI). The migration assay plates were warmed to room temperature prior to use and plugs were removed from 100% confluence wells prior to cell addition. The HCT8 enterocyte and HT29-MTX goblet cell lines were used at a 9:1 ratio with a total of 5×10^4 total cells added per well (4.5×10^4 HCT8 cells and 0.5×10^4 HT29-MTX cells). Cells were incubated at 37° C.+5% CO2 for 24 hours. Plugs were then removed from all control and sample wells. Control wells included cells treated with the diluent vehicle as the blank, 30 ng/ml epidermal growth factor (EGF) as the positive control, and 100 nM staurosporine as the negative control, all diluted in cRPMI. Sample wells contained SG-14 protein at a concentration of 1 μg/ml diluted in cRPMI. 100% and 0% wells were cultured in cRPMI. […] The green fluorescent viability dye […] was added to all wells at a concentration of […] in PBS containing 0.9 mM CaCl2) and 0.5 mM MgCl2, incubated for 30 min at 37° C.+5% CO2, the dye was removed and cells were washed in PBS containing 0.9 mM CaCl2) and 0.5 mM MgCl2 and fluorescence was measured. […] Samples were normalized between 100% and 0% samples and values expressed as a percent growth.

B1: SG-14: Eubacterium eligens protein comprising SEQ ID NO:3; tested form expressed in E. coli, with exogenous GPLG at N-terminus and PHRD at C-terminus (protein)
chain: GCARNSTSTTTASGGETTITSAITKEDTDVTHADDAENYRVSITGDFTVTSDTSDGVTQSGSVYTITKAGEYTVTGLLSEGQLIVDAGNENEVTIVLNGTSITCSSGSPIYVKNASEVKIKSEENSFNEVIDNRNEATEDSSDDAGNAAIYATCDLKLVGKGALVVTGNYNNGIQSKDDLSIKNVIVKVTAVNNAVKVNDAVDIESGNIIAISAKGDGIKTSNSSISNKGNQKGIVTITSGNIDIYAACDGIDASYGADISGDGNLNIYTDTYSEYSEEVTSSGSSSGTSSGRDSSANKSASANTVSYVATSDTIANAPSGFGGGNMGSGNAPDMSNGNAPNMNGSSDRNKTGGNRPGMPGDFNESGNSSGQSYSTKGIKAESEINISGFTINICSTDDGIHANSDSGVLETGEDGKGTIVINGGSITISSGDDGMHADKQLDVNDGYINVVTSYEGLEAMTINLNGGKIYVYATDDGINACTGDGKTSPIVNVTGGYIDVTTTSGDTDGIDSNGNYVQTGGFVLVKGGSSSGNVSGSIDVDGTVTITGGTCVALGGVCETPVNSANAYVLGSVSFSSGSYSLKDSSGNEVISFTVDGSFSNGWICSDTLTTGSSYTLYRGADSIADWTQE
modifications: N-terminal GPLG and C-terminal PHRD
With B1 the “Wound healing (percent growth)” value was “significant increase in growth”.
